From patent US20110294144
Positions count from the first letter of the chain named. Names may count otherwise.

B1: human PRKX (hPRKXkai), overexpressed from pPRKXkai plasmid or PRKX overexpression lentivirus (protein)
chain: MEAPGLAQAAAAESDSRKVAEETPDGAPALCPSPEALSPEPPVYSLQDFDTLATVGTGTFGRVHLVKEKTAKHFFALKVMSIPDVIRLKQEQHVHNEKSVLKEVSHPFLIRLFWTWHDERFLYMLMEYVPGGELFSYLRNRGRFSSTTGLFYSAEIICAIEYLHSKEIVYRDLKPENILLDRDGHIKLTDFGFAKKLVDRTWTLCGTPEYLAPEVIQSKGHGRAVDWWALGILIFEMLSGFPPFFDDNPFGIYQKILAGKIDFPRHLDFHVKDLIKKLLVVDRTRRLGNMKNGANDVKHHRWFRSVDWEAVPQRKLKPPIVPKIAGDGDTSNFETYPENDWDTAAPVPQKDLEIFKNF
B2: inactive PRKX protein without kinase activity (D172A), overexpressed from pD172A plasmid or D172A overexpression lentivirus (protein)
chain: B1 chain with D172A

Legend:
[1] = target: wild-type human tau overexpressed in H4-tau cells
[2] = target: endogenous tau of rat primary nerve cells, P19332
Sequence of endogenous tau of rat primary nerve cells, P19332 (P19332 2-752): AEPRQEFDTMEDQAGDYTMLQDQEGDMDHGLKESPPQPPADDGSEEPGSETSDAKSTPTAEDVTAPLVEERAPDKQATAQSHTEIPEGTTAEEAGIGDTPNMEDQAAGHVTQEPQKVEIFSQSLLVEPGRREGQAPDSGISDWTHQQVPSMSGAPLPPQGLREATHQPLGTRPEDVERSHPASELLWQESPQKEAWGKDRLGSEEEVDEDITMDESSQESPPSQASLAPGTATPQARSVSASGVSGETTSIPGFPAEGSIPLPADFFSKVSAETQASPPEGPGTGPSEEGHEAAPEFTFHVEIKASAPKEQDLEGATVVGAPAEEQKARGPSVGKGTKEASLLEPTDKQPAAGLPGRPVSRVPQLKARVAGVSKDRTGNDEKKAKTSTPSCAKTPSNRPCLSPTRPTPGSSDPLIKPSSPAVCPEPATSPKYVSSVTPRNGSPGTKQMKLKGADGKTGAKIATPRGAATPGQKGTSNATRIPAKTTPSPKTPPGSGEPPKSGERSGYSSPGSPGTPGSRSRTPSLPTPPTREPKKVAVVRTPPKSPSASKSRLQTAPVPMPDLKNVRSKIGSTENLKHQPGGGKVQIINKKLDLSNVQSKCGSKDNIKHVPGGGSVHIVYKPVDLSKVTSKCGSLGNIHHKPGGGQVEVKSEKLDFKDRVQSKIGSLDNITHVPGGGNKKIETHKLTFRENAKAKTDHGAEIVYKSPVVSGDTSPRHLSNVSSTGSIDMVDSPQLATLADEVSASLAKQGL

| Protein | S214 phosphorylation of tau, Western blot, 0.02 µg PRKX expression plasmid [1] | S214 phosphorylation of tau, Western blot, 0.06 µg PRKX expression plasmid [1] | S214 phosphorylation of tau, Western blot, 0.2 µg PRKX expression plasmid [1] | amount of S214 phosphorylated tau in the total tau, ELISA, 0.02 µg PRKX expression plasmid [1] | amount of S214 phosphorylated tau in the total tau, ELISA, 0.06 µg PRKX expression plasmid [1] | amount of S214 phosphorylated tau in the total tau, ELISA, 0.2 µg PRKX expression plasmid [1] | amount of S214 phosphorylated tau, ELISA, PRKX lentivirus MOI 1 [2] | amount of S214 phosphorylated tau, ELISA, PRKX lentivirus MOI 3 [2] | amount of S214 phosphorylated tau, ELISA, PRKX lentivirus MOI 6 [2] | S214 phosphorylation of tau, Western blot and ELISA [1] | amount of S214 phosphorylated tau, ELISA, D172A lentivirus MOI 1, 6 [2] |
| --- | --- | --- | --- | --- | --- | --- | --- | --- | --- | --- | --- |
| B1 | 1.3-fold, 1.9-fold and 2.9-fold enhanced S214 phosphorylation was found in the cells incorporating 0.02 µg, 0.06 µg and 0.2 µg of PRKX expression plasmid, respectively | 1.3-fold, 1.9-fold and 2.9-fold enhanced S214 phosphorylation was found in the cells incorporating 0.02 µg, 0.06 µg and 0.2 µg of PRKX expression plasmid, respectively | 1.3-fold, 1.9-fold and 2.9-fold enhanced S214 phosphorylation was found in the cells incorporating 0.02 µg, 0.06 µg and 0.2 µg of PRKX expression plasmid, respectively | 2.5-fold, 3.4-fold and 5.8-fold enhanced S214 phosphorylation was found in the cells incorporating 0.02 µg, 0.06 µg and 0.2 µg of PRKX expression plasmid, respectively | 2.5-fold, 3.4-fold and 5.8-fold enhanced S214 phosphorylation was found in the cells incorporating 0.02 µg, 0.06 µg and 0.2 µg of PRKX expression plasmid, respectively | 2.5-fold, 3.4-fold and 5.8-fold enhanced S214 phosphorylation was found in the cells incorporating 0.02 µg, 0.06 µg and 0.2 µg of PRKX expression plasmid, respectively | 3.0-fold, 4.2-fold and 6.3-fold enhanced amounts of S214 phosphorylated tau were found in the cells infected with PRKX overexpression lentivirus at MOI-1, 3 and 6, respectively | 3.0-fold, 4.2-fold and 6.3-fold enhanced amounts of S214 phosphorylated tau were found in the cells infected with PRKX overexpression lentivirus at MOI-1, 3 and 6, respectively | 3.0-fold, 4.2-fold and 6.3-fold enhanced amounts of S214 phosphorylated tau were found in the cells infected with PRKX overexpression lentivirus at MOI-1, 3 and 6, respectively | – | – |
| B2 | – | – | – | – | – | – | – | – | – | enhanced S214 phosphorylation was not found in pD172A tranfected cell | D172A overexpression lentivirus and lacZ overexpression lentivirus did not show an enhanced amount of S214 phosphorylated tau |
